Source: patent EP4541814A1

Target: AAV9 viral particles (adeno-associated virus 9)
Assay: SPR (Biacore 8K+), biotinylated ligand on SA chip (4128 RU), AAV9 2E12 vp/ml

For “CaptureSelect Biotin Anti-AAV9 Conjugate (ThermoFisher Scientific)”, the AAV9 capacity, 2E12 vp/ml (RU) was 8860 RU.
